Laboratory results published in patent US20210115135A1 (ZHEJIANG SHIMAI PHARMACEUTICAL, published 2021).
“And” between values parts separate entries of the source, which are not always exact repeats. Equal values may be shown once.

target: T1, recombinant human LAG3 (Sino Biological Inc.) (human, UniProt P18627 23-450); assay: ELISA, recombinant human LAG3 coated, Fab detected by anti-FLAG-HRP
T1 construct: Bought recombinant protein; also called CD223; biotinylated recombinant human LAG3
T1 sequence (looked up): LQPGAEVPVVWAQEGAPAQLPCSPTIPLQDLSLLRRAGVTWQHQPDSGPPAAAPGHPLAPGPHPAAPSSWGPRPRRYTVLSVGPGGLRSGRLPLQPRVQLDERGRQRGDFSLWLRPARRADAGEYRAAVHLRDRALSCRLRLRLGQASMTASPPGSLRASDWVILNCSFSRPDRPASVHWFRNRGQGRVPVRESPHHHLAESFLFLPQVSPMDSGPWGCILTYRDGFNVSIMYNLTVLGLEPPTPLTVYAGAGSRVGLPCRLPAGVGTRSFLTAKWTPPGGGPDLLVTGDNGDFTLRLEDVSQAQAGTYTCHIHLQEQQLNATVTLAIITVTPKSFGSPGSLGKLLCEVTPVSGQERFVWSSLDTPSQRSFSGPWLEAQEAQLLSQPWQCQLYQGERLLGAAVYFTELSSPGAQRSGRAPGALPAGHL
Procedure: The hexahistidine-tagged antibodies were expressed in E. coli strain HB2151 and purified from the soluble fraction of periplasm by using the Ni-NTA resin. 7 monoclonal antibodies against human LAG3 were selected by panning a large phage-display library of naïve human antibodies in the format of antigen-binding fragment (Fab). Then ELISA was performed according to standard protocols. Briefly, recombinant human LAG3 (Sino Biological Inc.) was coated on Corning EIA/RIA high-binding 96-well plates (Corning Inc.) at 50 ng per well overnight at 4° C. and blocked with 3% nonfat milk in PBS (pH7.4). Fivefold serially diluted antibodies were added and incubated at room temperature for 2 h. The plates were washed with PBS containing 0.05% Tween 20. Bound antibodies were detected by HRP-conjugated anti-FLAG tag antibody (Sigma-Aldrich). The assay was developed at room temperature with TMB substrate (Sigma-Aldrich) and monitored at 450 nm with a microplate reader.

Binder	EC50	binding result
DNV1 Fab (Fab, V domains shown, Human Fab from a phage library, hexahistidine-tagged, detected through a FLAG tag, made in E. coli HB2151) VH: QVQLQQWGAGLLKPSETLSLTCAVYGGSFSGYYWSWIRQPPGKGLEWIGEINHSGSTNYNPSLKSRVTISVDTSKNQFSLKLSSVTAADTAVYYCARITPRFDAFDIWGQGTMVTVSS VL: QSVLTQPPSVSAAPGRKVTISCSGSSSNIGTNSVSWYQQFPGTAPKLLIYDNNKRLSRIPDRFSGSKSGTSASLAISGLQSEDEADYYCAAWDDSLTGYVFGTGTKVTVL	≤ 10 nM	
DNV6 Fab (Fab, V domains shown, Human Fab from a phage library, hexahistidine-tagged, detected through a FLAG tag, made in E. coli HB2151) VH: EVQLVQSGAEVKKPGESLKISCKGSGYSFTSYWIGWVRQMPGKGLEWMGIIYPGDSDTRYSPSFQGQVTISADKSISTAYLQWSSLKASDTAMYYCASGAPGYYYDSSGYYAFDIWGQGTMVTVSS VL: QSVVTQPPSVSGAPGQRVTVSCTGSSSNIGADFDVHWYQQLPGTAPKLLIYGNTNRPSGVPDRFSGSKSGTSASLAITGLQAEDEADYYCQSYDNSLSGVVFGGGTKVTVL	≤ 10 nM	
DNV5 Fab (Fab, V domains shown, Human Fab from a phage library, hexahistidine-tagged, detected through a FLAG tag, made in E. coli HB2151) VH: QVQLVQSGAEVKKPGASVKVSCKASGGTFSSYAISWVRQAPGQGLEWMGGIIPIFGTANYAQKFQGRVTITADESTSTAYMELSSLRSEDTAVYYCARASPPAAYYYYYGMDVWGQGTTVTVSS VL: DIQMTQSPSSLSASVGDRVTITCQASQDISNYLNWYQQKPGKAPKLLIYAASILQSGVPSRFSGSGSGTDFTLTISSLQPEDFATYYCQQSHSYSETFGQGTKVEIK	≤ 10 nM	
DNV3 Fab (Fab, V domains shown, Human Fab from a phage library, hexahistidine-tagged, detected through a FLAG tag, made in E. coli HB2151) VH: EVQLVQSGAEVKKPGASVKVSCKASGYTFTSYGISWVRQAPGQGLEWMGWISAYNGNTNYAQKLQGRVTMTTDTSTSTAYMELRSLRSDDTAVYYCARDSSSWWVDAFDIWGQGTMVTVSS VL: QSVLTQPPSVSAAPGQKVTISCSGSTSNIAINYVSWYQQVPGTVPKLLIYDDDKRPSGIPDRFSGSKSGTSATLDISGLQTGDEAHYYCGVWDNSLLAVLFGGGTSLTVL	6 nM and ≤ 10 nM	
DNV3.7 Fab (Fab, V domains shown, Light-chain-shuffled Fab variant of DNV3) VH: EVQLVQSGAEVKKPGASVKVSCKASGYTFTSYGISWVRQAPGQGLEWMGWISAYNGNTNYAQKLQGRVTMTTDTSTSTAYMELRSLRSDDTAVYYCARDSSSWWVDAFDIWGQGTMVTVSS VL: SYELTQPPSVSEAPRQRVTISCSGSSSNIGSNAVSWYQQVPRKAPKLLVYYDDLLPSGVSDRFSGSKSGTSASLAIRGLQSEDEADYYCAAWDDSLNAFVFGTGTKVTVL		binds
DNV3.15 Fab (Fab, V domains shown, Light-chain-shuffled Fab variant of DNV3) VH: EVQLVQSGAEVKKPGASVKVSCKASGYTFTSYGISWVRQAPGQGLEWMGWISAYNGNTNYAQKLQGRVTMTTDTSTSTAYMELRSLRSDDTAVYYCARDSSSWWVDAFDIWGQGTMVTVSS VL: LPVLTQPPSASGTPGQRITISCSGSSSNIGSATVNWYQHLPGTAPKLLIYGDNQRPSGVADRFSGSKSGTSASLEIRGLQSEDEADYYCAAWDGSLDGVMFGGGTRVNVL		binds
DNV3.3 Fab (Fab, V domains shown, Light-chain-shuffled Fab variant of DNV3) VH: EVQLVQSGAEVKKPGASVKVSCKASGYTFTSYGISWVRQAPGQGLEWMGWISAYNGNTNYAQKLQGRVTMTTDTSTSTAYMELRSLRSDDTAVYYCARDSSSWWVDAFDIWGQGTMVTVSS VL: QSVLTQPPSASGTPGQRVTISCSGSSSNIGNNAVNWYQQLPGKAPKLLIYYDDLLPSGVSDRFSGSKSGTSASLAISGLRSEDEGDYFCAAWDDSLSGQVLFGGGTKLTVL		binds
DNV3.8 Fab (Fab, V domains shown, Light-chain-shuffled Fab variant of DNV3) VH: EVQLVQSGAEVKKPGASVKVSCKASGYTFTSYGISWVRQAPGQGLEWMGWISAYNGNTNYAQKLQGRVTMTTDTSTSTAYMELRSLRSDDTAVYYCARDSSSWWVDAFDIWGQGTMVTVSS VL: SYELTQPPSVSEAPRQRATISCSGSRSNIGNNAVSWYQRLPGQAPKLLIYYDTFLPSGVSDRFSGSKSGTSASLTISGLQSDDEADYYCAAWDDSLNGVLFGGGTKLTVQ		binds
DNV3.13 Fab (Fab, V domains shown, Light-chain-shuffled Fab variant of DNV3) VH: EVQLVQSGAEVKKPGASVKVSCKASGYTFTSYGISWVRQAPGQGLEWMGWISAYNGNTNYAQKLQGRVTMTTDTSTSTAYMELRSLRSDDTAVYYCARDSSSWWVDAFDIWGQGTMVTVSS VL: SYVLTQPPSASGTPGQRVTMSCSGRYSNIGGNTVNWYHHLPGTAPTLLIYSNDQRPSGVPDRFSGSKSGTSASLAISGVQSEDEADYYCAAWDDNLNGLVFGTGTKVTVL		binds
DNV3.4 Fab (Fab, V domains shown, Light-chain-shuffled Fab variant of DNV3) VH: EVQLVQSGAEVKKPGASVKVSCKASGYTFTSYGISWVRQAPGQGLEWMGWISAYNGNTNYAQKLQGRVTMTTDTSTSTAYMELRSLRSDDTAVYYCARDSSSWWVDAFDIWGQGTMVTVSS VL: SYVLTQPPSTSAAPGQTVTILCFGGGSNLQSNTVNWYRHVSGSAPKLLIHSDDERASGVSPRLSGSKSGGSASLILRGLQPEDEGDYYCAAWDDRLDAYVFGTGTKVTVL		binds
DNV3.14 Fab (Fab, V domains shown, Light-chain-shuffled Fab variant of DNV3) VH: EVQLVQSGAEVKKPGASVKVSCKASGYTFTSYGISWVRQAPGQGLEWMGWISAYNGNTNYAQKLQGRVTMTTDTSTSTAYMELRSLRSDDTAVYYCARDSSSWWVDAFDIWGQGTMVTVSS VL: PYVLTQPPSVSGAPRQRVTISCSGGSSNIASNAVNWYQQFPGKAPKLLVYYDDLLPSGVSDRFSGSKTGTSASLAISALQSEDEADYFCAAWDDSLNGVLFGGGTKLTVL		binds
DNV3.1 Fab (Fab, V domains shown) VH: EVQLVQSGAEVKKPGASVKVSCKASGYTFTSYGISWVRQAPGQGLEWMGWISAYNGNTNYAQKLQGRVTMTTDTSTSTAYMELRSLRSDDTAVYYCARDSSSWWVDAFDIWGQGTMVTVSS VL: LPVLTQPPSASGTPGQRVTISCSGSSSNIGGNSVNWYQQLPGTAPKLLIYSDNQRPSGVPDRFSGSKSGTSASLAISGLQSEEEADYYCAAWDDSLNAYVFGPGTKVTVL		binds
DNV3.2 Fab (Fab, V domains shown, Light-chain-shuffled Fab variant of DNV3) VH: EVQLVQSGAEVKKPGASVKVSCKASGYTFTSYGISWVRQAPGQGLEWMGWISAYNGNTNYAQKLQGRVTMTTDTSTSTAYMELRSLRSDDTAVYYCARDSSSWWVDAFDIWGQGTMVTVSS VL: not shown		binds
DNV3.18 Fab (Fab, V domains shown, Light-chain-shuffled Fab variant of DNV3) VH: EVQLVQSGAEVKKPGASVKVSCKASGYTFTSYGISWVRQAPGQGLEWMGWISAYNGNTNYAQKLQGRVTMTTDTSTSTAYMELRSLRSDDTAVYYCARDSSSWWVDAFDIWGQGTMVTVSS VL: SVVTQPPSVSEAPRQRVTISCSGSSSNIGNNAVNWYQQLPGKAPKLLIYYDDLLPSGVSDRFSGSKSGTSASLAISGLQSEDEADYYCAAWDDSLNAVVFGGGTKLTVL		binds
DNV3.12 Fab (Fab, V domains shown, Light-chain-shuffled Fab variant of DNV3) VH: EVQLVQSGAEVKKPGASVKVSCKASGYTFTSYGISWVRQAPGQGLEWMGWISAYNGNTNYAQKLQGRVTMTTDTSTSTAYMELRSLRSDDTAVYYCARDSSSWWVDAFDIWGQGTMVTVSS VL: SYVLTQPPSASGTPGQRVTISCSGSSSNIGSNIVNWYQHLPGTAPKLLIYGNSQRPSGVSDRFSGSKSGTSASLAISGLQSEDEANYYCAVWDDSLDGHLLFGGGTKLTVL		binds
DNV3.5 Fab (Fab, V domains shown, Light-chain-shuffled Fab variant of DNV3) VH: EVQLVQSGAEVKKPGASVKVSCKASGYTFTSYGISWVRQAPGQGLEWMGWISAYNGNTNYAQKLQGRVTMTTDTSTSTAYMELRSLRSDDTAVYYCARDSSSWWVDAFDIWGQGTMVTVSS VL: QSVLTQPPSASGTPGQRVTISCSGSTSNIGGNTVNWYQQLPGTAPKLLIYSSNRRPSGVPDRFSGSTSGTSASLAISGLQSEDEADYYCAAWDDSLIAYVFGTGTKVTVL		binds
DNV3.9 Fab (Fab, V domains shown, Light-chain-shuffled Fab variant of DNV3) VH: EVQLVQSGAEVKKPGASVKVSCKASGYTFTSYGISWVRQAPGQGLEWMGWISAYNGNTNYAQKLQGRVTMTTDTSTSTAYMELRSLRSDDTAVYYCARDSSSWWVDAFDIWGQGTMVTVSS VL: LPVLTQPPSVSGAPRQRVTISCSGGSSNIASNAVNWYQQFPGKAPKLLVYYDDLLPSGVSDRFSGSKTGTSASLAISALQSEDEADYFCAAWDDSLNGVLFGGGTKLTVL		binds
DNV3.16 Fab (Fab, V domains shown, Light-chain-shuffled Fab variant of DNV3) VH: EVQLVQSGAEVKKPGASVKVSCKASGYTFTSYGISWVRQAPGQGLEWMGWISAYNGNTNYAQKLQGRVTMTTDTSTSTAYMELRSLRSDDTAVYYCARDSSSWWVDAFDIWGQGTMVTVSS VL: SYVLTQPPSASGTPGQRVTISCSGGSSNIASNAVNWYQQFPGKAPKLLVYYDDLLPSGVSDRFSGSKTGTSASLAISALQSEDEADYFCAAWDDSLNGVLFGGGTKLTVL		binds
